Source: paper PMC4079599, “Mixed Disulfide Formation at Cys141 Leads to Apparent Unidirectional Attenuation of Aspergillus niger NADP-Glutamate Dehydrogenase Activity” (PLoS ONE, 2014)

Assays:
[1] = target: T1, AnGDH (NADP-glutamate dehydrogenase from Aspergillus niger, recombinant) (Aspergillus niger, UniProt B6V7E4); assay: time-dependent inactivation of forward activity, kapp versus concentration; type: biochemical; conditions: covalent, mixed disulfide at Cys141; incubation at 37°C; residual activity in standard forward assay pH 8.0
T1 construct: full-length cDNA in pET43.1(b) NdeI/HindIII, E. coli BL21(DE3), without a tag, purified
T1 sequence (B6V7E4 1-460): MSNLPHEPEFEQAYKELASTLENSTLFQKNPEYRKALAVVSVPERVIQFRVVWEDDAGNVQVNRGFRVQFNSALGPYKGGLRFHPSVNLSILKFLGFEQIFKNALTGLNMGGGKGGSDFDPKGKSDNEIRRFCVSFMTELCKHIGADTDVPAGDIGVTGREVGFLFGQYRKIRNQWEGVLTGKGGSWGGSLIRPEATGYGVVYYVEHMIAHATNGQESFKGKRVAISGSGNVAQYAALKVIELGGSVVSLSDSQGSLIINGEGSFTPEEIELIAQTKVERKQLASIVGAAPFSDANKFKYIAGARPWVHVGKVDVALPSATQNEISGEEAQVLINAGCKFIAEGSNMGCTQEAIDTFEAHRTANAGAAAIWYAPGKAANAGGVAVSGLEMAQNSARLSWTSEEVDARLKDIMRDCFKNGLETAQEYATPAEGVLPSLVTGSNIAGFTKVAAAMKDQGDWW

[2] = target: T1, AnGDH (NADP-glutamate dehydrogenase from Aspergillus niger, recombinant); assay: residual forward activity after […] h incubation; type: biochemical; conditions: covalent; saturated cystine (0.47 mM), 1 h, 37°C; standard forward assay pH 8.0
[3] = test system: N; assay: purified protein; conditions: forward reaction, Tris-HCl pH 8.0, 2-oxoglutarate and NADPH, room temperature
[4] = test system: T2, O=C(O)CCC(=O)C(=O)O; assay: purified protein; type: biochemical, Aspergillus niger; conditions: forward reaction, sigmoid saturation, Tris-HCl pH 8.0, ammonium chloride and NADPH, room temperature
T2 construct: full-length cDNA in pET43.1(b) NdeI/HindIII, E. coli BL21(DE3), without a tag, purified

[5] = test system: T3, N[C@@H](CCC(=O)O)C(=O)O; assay: purified protein; type: biochemical, Aspergillus niger; conditions: reverse reaction, Tris-HCl pH 9.3, NADP+, room temperature
T3 construct: full-length cDNA in pET43.1(b) NdeI/HindIII, E. coli BL21(DE3), without a tag, purified

[6] = substrate: N; assay: purified protein; conditions: forward reaction, Tris-HCl pH 8.0, 2-oxoglutarate and NADPH, room temperature; remark: listed apart in the source
[7] = substrate: O=C(O)CCC(=O)C(=O)O; assay: purified protein; type: biochemical, Aspergillus niger; conditions: forward reaction, sigmoid saturation, Tris-HCl pH 8.0, ammonium chloride and NADPH, room temperature
[8] = substrate: N[C@@H](CCC(=O)O)C(=O)O; assay: purified protein; type: biochemical, Aspergillus niger; conditions: reverse reaction, Tris-HCl pH 9.3, NADP+, room temperature
[9] = substrate: NC(=O)c1ccc[n+]([C@@H]2O[C@H](COP(=O)(O)OP(=O)(O)OC[C@H]3O[C@@H](n4cnc5c(N)ncnc54)[C@H](OP(=O)(O)O)[C@@H]3O)[C@@H](O)[C@H]2O)c1; assay: purified protein; type: biochemical, Aspergillus niger; conditions: reverse reaction, Tris-HCl pH 9.3, L-glutamate, room temperature
[10] = substrate: NC(=O)C1=CN([C@@H]2O[C@H](COP(=O)(O)OP(=O)(O)OC[C@H]3O[C@@H](n4cnc5c(N)ncnc54)[C@H](OP(=O)(O)O)[C@@H]3O)[C@@H](O)[C@H]2O)C=CC1; assay: purified protein; type: biochemical, Aspergillus niger; conditions: forward reaction, Tris-HCl pH 8.0, 2-oxoglutarate and ammonium chloride, room temperature

Molecule: OCCSSCCO [2-HED]
- second order inactivation rate constant [1]: 0.937 M⁻¹ s⁻¹

Molecule: N[C@@H](CSSC[C@H](N)C(=O)O)C(=O)O [Cystine]
- Residual activity (%) / Forward [2]: 8.3±1.9%

Molecule: AnGDH (NADP-glutamate dehydrogenase from Aspergillus niger, recombinant) (Aspergillus niger; C141S)
- Km [3]: 1200 µM
- K0.5 [4]: 4.00 mM
- Km [5]: 28600 µM

Molecule: AnGDH (NADP-glutamate dehydrogenase from Aspergillus niger, recombinant) (Aspergillus niger; C415S)
- K0.5 [4]: 15.50 mM
- Km [5]: 36800 µM

B1: AnGDH (NADP-glutamate dehydrogenase from Aspergillus niger, recombinant) (Aspergillus niger) (protein)
chain: T1 sequence (B6V7E4 1-460)
notes: full-length cDNA in pET43.1(b) NdeI/HindIII, E. coli BL21(DE3), without a tag, purified
- Km [6]: 1100 µM
- K0.5 [7]: 5.70 mM
- Km [8]: 30900 µM
- Km [9]: 28 µM
- Km [10]: 23 µM
